In patent US20200283521A1 one finds Kd data, which are given here for two substances.

For this experiment, the target named is human FcRn (human) (UniProt P55899). The experiment in a line: SPR steady state at pH 6, FcRn coupled.
Sequence of human FcRn (human) (P55899 24-297 limits assumed, chain 1 of 2): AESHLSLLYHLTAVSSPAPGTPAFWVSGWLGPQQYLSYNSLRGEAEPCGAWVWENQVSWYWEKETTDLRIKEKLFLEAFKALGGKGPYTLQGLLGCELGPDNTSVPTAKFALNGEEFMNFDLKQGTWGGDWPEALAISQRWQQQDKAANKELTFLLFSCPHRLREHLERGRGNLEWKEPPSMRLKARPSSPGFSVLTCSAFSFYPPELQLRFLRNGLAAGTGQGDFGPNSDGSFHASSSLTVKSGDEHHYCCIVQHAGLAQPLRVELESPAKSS
Sequence of human FcRn (human) (chain, as listed by the source limits assumed, chain 2 of 2): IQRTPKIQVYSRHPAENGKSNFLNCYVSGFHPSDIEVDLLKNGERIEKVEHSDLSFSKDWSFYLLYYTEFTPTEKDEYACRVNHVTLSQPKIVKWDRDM

One may read the Kd as a measure of binding affinity in units of concentration. isotype control human IgG1 (antibody) showed a Kd of 1.18 µM.

In turn, isotype control human IgG4 antibody yielded a Kd of 2.6 µM.
